Measurements published in patent publication US9284543B2, “Neutral active soluble truncated PH20 polypeptides and uses thereof” (Halozyme, Inc., priority 2008, dated 2016).

Legend:
CHO-S cells = assay: Western blot analysis of PH20 expression in media and cells after transient expression; format: cell-based, Chinese Hamster; details: media versus cells
Method in brief: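 PH20 expression and solubility were judged by anti-PH20 Western blot of non-reduced media and cell fractions, with expression shown by a ~66 kDa band. Samples came from CHO-S cells transiently transfected (GeneJuice) with mutant PH20-HZ24 DNA and cultured 48-72 h. GPI-anchored mutants were cleaved with PI-PLC to release soluble protein.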

[1] = Microtiter hyaluronidase activity assay with biotinylated-hyaluronic acid; format: biochemical; details: 72 hour post transfection supernatant

B1: SPAM1-ADVK: C-terminally truncated human PH20, precursor 450 aa (SEQ ID NO:43), mature 415 aa (SEQ ID NO:95) (protein, listed as Homo sapiens)
chain: MGVLKFKHIFFRSFVKSSGVSQIVFTFLLIPCCLTLNFRAPPVIPNVPFLWAWNAPSEFCLGKFDEPLDMSLFSFIGSPRINATGQGVTIFYVDRLGYYPYIDSITGVTVNGGIPQKISLQDHLDKAKKDITFYMPVDNLGMAVIDWEEWRPTWARNWKPKDVYKNRSIELVQQQNVQLSLTEATEKAKQEFEKAGKDFLVETIKLGKLLRPNHLWGYYLFPDCYNHHYKKPGYNGSCFNVEIKRNDDLSWLWNESTALYPSIYLNTQQSPVAATLYVRNRVREAIRVSKIPDAKSPLPVFAYTRIVFTDQVLKFLSQDELVYTFGETVALGASGIVIWGTLSIMRSMKSCLLLDNYMETILNPYIINVTLAAKMCSQVLCQEQGVCIRKNWNSSDYLHLNPDNFAIQLEKGGKFTVRGKPTLEDLEQFSEKFYCSCYSTLSCKEKADVK
modifications: HuPH20 precursor 1-450
- Expressed in Media (CHO-S cells): YES
- pH 5.5 Activity ([1]; Table 6): 0.0405 Units/ml
- pH 7.4 Activity ([1]; Table 6): 0.063 Units/ml

B2: SPAM1-VKDT: C-terminally truncated human PH20, precursor 452 aa (SEQ ID NO:42), mature 417 aa (SEQ ID NO:94) (protein, listed as Homo sapiens)
chain 1: MGVLKFKHIFFRSFVKSSGVSQIVFTFLLIPCCLTLNFRAPPVIPNVPFLWAWNAPSEFCLGKFDEPLDMSLFSFIGSPRINATGQGVTIFYVDRLGYYPYIDSITGVTVNGGIPQKISLQDHLDKAKKDITFYMPVDNLGMAVIDWEEWRPTWARNWKPKDVYKNRSIELVQQQNVQLSLTEATEKAKQEFEKAGKDFLVETIKLGKLLRPNHLWGYYLFPDCYNHHYKKPGYNGSCFNVEIKRNDDLSWLWNESTALYPSIYLNTQQSPVAATLYVRNRVREAIRVSKIPDAKSPLPVFAYTRIVFTDQVLKFLSQDELVYTFGETVALGASGIVIWGTLSIMRSMKSCLLLDNYMETILNPYIINVTLAAKMCSQVLCQEQGVCIRKNWNSSDYLHLNPDNFAIQLEKGGKFTVRGKPTLEDLEQFSEKFYCSCYSTLSCKEKADVKDT
chain 2: LNFRAPPVIPNVPFLWAWNAPSEFCLGKFDEPLDMSLFSFIGSPRINATGQGVTIFYVDRLGYYPYIDSITGVTVNGGIPQKISLQDHLDKAKKDITFYMPVDNLGMAVIDWEEWRPTWARNWKPKDVYKNRSIELVQQQNVQLSLTEATEKAKQEFEKAGKDFLVETIKLGKLLRPNHLWGYYLFPDCYNHHYKKPGYNGSCFNVEIKRNDDLSWLWNESTALYPSIYLNTQQSPVAATLYVRNRVREAIRVSKIPDAKSPLPVFAYTRIVFTDQVLKFLSQDELVYTFGETVALGASGIVIWGTLSIMRSMKSCLLLDNYMETILNPYIINVTLAAKMCSQVLCQEQGVCIRKNWNSSDYLHLNPDNFAIQLEKGGKFTVRGKPTLEDLEQFSEKFYCSCYSTLSCKEKADVKDT
modifications: HuPH20 precursor 1-452; Mature HuPH20 36-452
- Expressed in Media (CHO-S cells): YES
- pH 5.5 Activity ([1]; Table 6): 0.0225 Units/ml
- pH 7.4 Activity ([1]; Table 6): 0.054 Units/ml

B3: SPAM1-DAVD: C-terminally truncated human PH20, precursor 456 aa (SEQ ID NO:40), mature 421 aa (SEQ ID NO:92) (protein, listed as Homo sapiens)
chain 1: MGVLKFKHIFFRSFVKSSGVSQIVFTFLLIPCCLTLNFRAPPVIPNVPFLWAWNAPSEFCLGKFDEPLDMSLFSFIGSPRINATGQGVTIFYVDRLGYYPYIDSITGVTVNGGIPQKISLQDHLDKAKKDITFYMPVDNLGMAVIDWEEWRPTWARNWKPKDVYKNRSIELVQQQNVQLSLTEATEKAKQEFEKAGKDFLVETIKLGKLLRPNHLWGYYLFPDCYNHHYKKPGYNGSCFNVEIKRNDDLSWLWNESTALYPSIYLNTQQSPVAATLYVRNRVREAIRVSKIPDAKSPLPVFAYTRIVFTDQVLKFLSQDELVYTFGETVALGASGIVIWGTLSIMRSMKSCLLLDNYMETILNPYIINVTLAAKMCSQVLCQEQGVCIRKNWNSSDYLHLNPDNFAIQLEKGGKFTVRGKPTLEDLEQFSEKFYCSCYSTLSCKEKADVKDTDAVD
chain 2: LNFRAPPVIPNVPFLWAWNAPSEFCLGKFDEPLDMSLFSFIGSPRINATGQGVTIFYVDRLGYYPYIDSITGVTVNGGIPQKISLQDHLDKAKKDITFYMPVDNLGMAVIDWEEWRPTWARNWKPKDVYKNRSIELVQQQNVQLSLTEATEKAKQEFEKAGKDFLVETIKLGKLLRPNHLWGYYLFPDCYNHHYKKPGYNGSCFNVEIKRNDDLSWLWNESTALYPSIYLNTQQSPVAATLYVRNRVREAIRVSKIPDAKSPLPVFAYTRIVFTDQVLKFLSQDELVYTFGETVALGASGIVIWGTLSIMRSMKSCLLLDNYMETILNPYIINVTLAAKMCSQVLCQEQGVCIRKNWNSSDYLHLNPDNFAIQLEKGGKFTVRGKPTLEDLEQFSEKFYCSCYSTLSCKEKADVKDTDAVD
modifications: HuPH20 precursor 1-456; Mature HuPH20 36-456
- Expressed in Media (CHO-S cells): YES
- pH 5.5 Activity ([1]; Table 6): 0.0675 Units/ml
- pH 7.4 Activity ([1]; Table 6): 0 Units/ml

B4: SPAM1-VDVC: C-terminally truncated human PH20, precursor 458 aa (SEQ ID NO:39), mature 423 aa (SEQ ID NO:91) (protein, listed as Homo sapiens)
chain 1: MGVLKFKHIFFRSFVKSSGVSQIVFTFLLIPCCLTLNFRAPPVIPNVPFLWAWNAPSEFCLGKFDEPLDMSLFSFIGSPRINATGQGVTIFYVDRLGYYPYIDSITGVTVNGGIPQKISLQDHLDKAKKDITFYMPVDNLGMAVIDWEEWRPTWARNWKPKDVYKNRSIELVQQQNVQLSLTEATEKAKQEFEKAGKDFLVETIKLGKLLRPNHLWGYYLFPDCYNHHYKKPGYNGSCFNVEIKRNDDLSWLWNESTALYPSIYLNTQQSPVAATLYVRNRVREAIRVSKIPDAKSPLPVFAYTRIVFTDQVLKFLSQDELVYTFGETVALGASGIVIWGTLSIMRSMKSCLLLDNYMETILNPYIINVTLAAKMCSQVLCQEQGVCIRKNWNSSDYLHLNPDNFAIQLEKGGKFTVRGKPTLEDLEQFSEKFYCSCYSTLSCKEKADVKDTDAVDVC
chain 2: LNFRAPPVIPNVPFLWAWNAPSEFCLGKFDEPLDMSLFSFIGSPRINATGQGVTIFYVDRLGYYPYIDSITGVTVNGGIPQKISLQDHLDKAKKDITFYMPVDNLGMAVIDWEEWRPTWARNWKPKDVYKNRSIELVQQQNVQLSLTEATEKAKQEFEKAGKDFLVETIKLGKLLRPNHLWGYYLFPDCYNHHYKKPGYNGSCFNVEIKRNDDLSWLWNESTALYPSIYLNTQQSPVAATLYVRNRVREAIRVSKIPDAKSPLPVFAYTRIVFTDQVLKFLSQDELVYTFGETVALGASGIVIWGTLSIMRSMKSCLLLDNYMETILNPYIINVTLAAKMCSQVLCQEQGVCIRKNWNSSDYLHLNPDNFAIQLEKGGKFTVRGKPTLEDLEQFSEKFYCSCYSTLSCKEKADVKDTDAVDVC
modifications: HuPH20 precursor 1-458; Mature HuPH20 36-458
- Expressed in Media (CHO-S cells): YES
- pH 5.5 Activity ([1]; Table 6): 0.0585 Units/ml
- pH 7.4 Activity ([1]; Table 6): 0.0495 Units/ml

B5: SPAM1-ASPS: C-terminally truncated human PH20, precursor 487 aa (SEQ ID NO:14), mature 452 aa (SEQ ID NO:66) (protein, listed as Homo sapiens)
chain: MGVLKFKHIFFRSFVKSSGVSQIVFTFLLIPCCLTLNFRAPPVIPNVPFLWAWNAPSEFCLGKFDEPLDMSLFSFIGSPRINATGQGVTIFYVDRLGYYPYIDSITGVTVNGGIPQKISLQDHLDKAKKDITFYMPVDNLGMAVIDWEEWRPTWARNWKPKDVYKNRSIELVQQQNVQLSLTEATEKAKQEFEKAGKDFLVETIKLGKLLRPNHLWGYYLFPDCYNHHYKKPGYNGSCFNVEIKRNDDLSWLWNESTALYPSIYLNTQQSPVAATLYVRNRVREAIRVSKIPDAKSPLPVFAYTRIVFTDQVLKFLSQDELVYTFGETVALGASGIVIWGTLSIMRSMKSCLLLDNYMETILNPYIINVTLAAKMCSQVLCQEQGVCIRKNWNSSDYLHLNPDNFAIQLEKGGKFTVRGKPTLEDLEQFSEKFYCSCYSTLSCKEKADVKDTDAVDVCIADGVCIDAFLKPPMETEEPQIFYNASPS
modifications: HuPH20 precursor 1-487
- Expressed in Media (CHO-S cells): YES
- pH 5.5 Activity ([1]; Table 6): 0.9225 Units/ml
- pH 7.4 Activity ([1]; Table 6): 1.017 Units/ml
- pH 5.5 Activity ([1]; Table 6A): 1.580 Units/ml
- pH 7.4 Activity ([1]; Table 6A): 1.134 Units/ml

B6: SPAM1-DTDA: C-terminally truncated human PH20, precursor 454 aa (SEQ ID NO:41), mature 419 aa (SEQ ID NO:93) (protein, listed as Homo sapiens)
chain 1: MGVLKFKHIFFRSFVKSSGVSQIVFTFLLIPCCLTLNFRAPPVIPNVPFLWAWNAPSEFCLGKFDEPLDMSLFSFIGSPRINATGQGVTIFYVDRLGYYPYIDSITGVTVNGGIPQKISLQDHLDKAKKDITFYMPVDNLGMAVIDWEEWRPTWARNWKPKDVYKNRSIELVQQQNVQLSLTEATEKAKQEFEKAGKDFLVETIKLGKLLRPNHLWGYYLFPDCYNHHYKKPGYNGSCFNVEIKRNDDLSWLWNESTALYPSIYLNTQQSPVAATLYVRNRVREAIRVSKIPDAKSPLPVFAYTRIVFTDQVLKFLSQDELVYTFGETVALGASGIVIWGTLSIMRSMKSCLLLDNYMETILNPYIINVTLAAKMCSQVLCQEQGVCIRKNWNSSDYLHLNPDNFAIQLEKGGKFTVRGKPTLEDLEQFSEKFYCSCYSTLSCKEKADVKDTDA
chain 2: LNFRAPPVIPNVPFLWAWNAPSEFCLGKFDEPLDMSLFSFIGSPRINATGQGVTIFYVDRLGYYPYIDSITGVTVNGGIPQKISLQDHLDKAKKDITFYMPVDNLGMAVIDWEEWRPTWARNWKPKDVYKNRSIELVQQQNVQLSLTEATEKAKQEFEKAGKDFLVETIKLGKLLRPNHLWGYYLFPDCYNHHYKKPGYNGSCFNVEIKRNDDLSWLWNESTALYPSIYLNTQQSPVAATLYVRNRVREAIRVSKIPDAKSPLPVFAYTRIVFTDQVLKFLSQDELVYTFGETVALGASGIVIWGTLSIMRSMKSCLLLDNYMETILNPYIINVTLAAKMCSQVLCQEQGVCIRKNWNSSDYLHLNPDNFAIQLEKGGKFTVRGKPTLEDLEQFSEKFYCSCYSTLSCKEKADVKDTDA
modifications: HuPH20 precursor 1-454; Mature HuPH20 36-454
- Expressed in Media (CHO-S cells): YES
- pH 5.5 Activity ([1]; Table 6): 0.054 Units/ml
- pH 7.4 Activity ([1]; Table 6): 0 Units/ml
